These results are taken from ChEMBL document CHEMBL1126580, “Enantiospecific syntheses of alpha-(fluoromethyl)tryptophan analogues: interactions with tryptophan hydroxylase and aromatic L-amino acid decarboxylase” (J Med Chem, 1993).

Substrate in data set [1]: N[C@@](CF)(Cc1c[nH]c2ccccc12)C(=O)O
The data set is described as follows: Km value was evaluated as a substrate for P815 tryptophan hydroxylase […].

Substrate in data set [2]: N[C@@](CF)(Cc1c[nH]c2ccccc12)C(=O)O
Nature of the data set: Compound was evaluated as a substrate for P815 tryptophan hydroxylase […].

B1: Tryptophan 5-hydroxylase 1 (Rattus norvegicus), P09810 (protein)
chain: MIEDNKENKDHSSERGRVTLIFSLKNEVGGLIKALKIFQENHVNLLHIESRKSKRRNSEFEIFVDCDINREQLNDIFPLLKSHTTVLSVDSPDQLPEKEDVMETVPWFPKKISDLDFCANRVLLYGSELDADHPGFKDNVYRRRRKYFAELAMNYKHGDPIPKIEFTEEEIKTWGTIFRELNKLYPTHACREYLRNLPLLSKYCGYREDNVPQLEDVSNFLKERTGFSIRPVAGYLSPRDFLSGLAFRVFHCTQYVRHSSDPLYTPEPDTCHELLGHVPLLAEPSFAQFSQEIGLASLGASEETVQKLATCYFFTVEFGLCKQDGQLRVFGAGLLSSISELRHALSGHAKVKPFDPKVACKQECLITSFQDVYFVSESFEDAKEKMREFAKTVKRPFGVKYNPYTQSIQVLRDSKSITSAMNELRHDLDVVNDALARVSRWPSV
In the case of B1, the Km (in general, the concentration of substrate that gives half-maximal velocity) in data set [1] was 4.31 mM. Also, the Vmax (uM min-1 (mg of protein)-1) in data set [2] was found to be 17.7.
